From US5576294A, “Human Kunitz-type protease inhibitor variant” (Novo Nordisk A/S, priority 1992, dated 1996)
pKi: −log10 of the molar value. Values belong to the substance of their own block, whether it stands above or below them.

Assays:
Human plasmin = Human plasmin (Homo sapiens, UniProt P00747); assay: Inhibition of serine proteinases: plasmin; assay type: biochemical; parameters: human plasmin and human plasma kallikrein was from Kabi (Stockholm, Sweden); purchased Kabi (Stockholm, Sweden); settings: Example 3; 30 min incubation, FIG. 2
Sequence of Human plasmin (P00747 581-810 limits assumed): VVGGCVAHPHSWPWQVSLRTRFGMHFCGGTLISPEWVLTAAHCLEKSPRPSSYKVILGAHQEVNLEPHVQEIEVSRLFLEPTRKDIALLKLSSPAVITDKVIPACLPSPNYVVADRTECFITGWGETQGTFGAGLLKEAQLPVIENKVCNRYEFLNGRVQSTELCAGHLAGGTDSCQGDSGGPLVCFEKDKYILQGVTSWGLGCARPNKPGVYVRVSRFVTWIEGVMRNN
Sequence of Human plasmin (P00747 97-580 limits assumed): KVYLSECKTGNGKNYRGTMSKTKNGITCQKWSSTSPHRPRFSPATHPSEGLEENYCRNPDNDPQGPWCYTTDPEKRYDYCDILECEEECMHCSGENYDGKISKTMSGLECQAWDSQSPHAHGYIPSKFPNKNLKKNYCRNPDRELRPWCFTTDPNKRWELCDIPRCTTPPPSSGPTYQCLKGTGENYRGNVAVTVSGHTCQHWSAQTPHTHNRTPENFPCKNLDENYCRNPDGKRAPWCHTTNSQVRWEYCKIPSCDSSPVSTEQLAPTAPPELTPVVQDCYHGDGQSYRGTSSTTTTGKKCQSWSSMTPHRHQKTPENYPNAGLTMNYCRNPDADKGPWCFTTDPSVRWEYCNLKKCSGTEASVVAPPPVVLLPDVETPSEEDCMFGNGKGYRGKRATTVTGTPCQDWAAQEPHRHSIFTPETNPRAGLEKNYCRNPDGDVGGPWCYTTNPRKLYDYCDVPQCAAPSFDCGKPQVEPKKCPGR
Protocol: (§1) KFN 1593 was purified from yeast culture medium as described in example 1. The concentration of KFN 1593 was determined using 1% E280 nm =8.3 and Mw =6500. Porcine trypsin was from Novo Nordisk (Bagsv.ae butted.rd, Denmark), bovine chymotrypsin (TLCK treated) and porcine pancreatic kallikrein was from Sigma Chemical Co (St. Louis, Mo., U.S.A.), human plasmin and human plasma kallikrein was from Kabi (Stockholm, Sweden).
(§2) Human neutrophil elastase and cathepsin G was purified from extracts of PMNs according to the method described by Baugh and Travis (Biochemistry 15 (1976) 836-843). Peptidyl nitroanilide substrates, S2251, S2586, S2266, S2302 were from Kabi (Stockholm, Sweden). M4765 and S7388 was from Sigma Chemical Co (St. Louis, Mo., U.S.A.) and FXa-1 was from NycoMed (Oslo, Norway).
(§3) Serine proteinases were incubated with various concentrations of KFN 1593 for 30 min. Substrate was then added and residual proteinase activity was measured at 405 nm.
(§4) The three TFPI (domain II) variants were purified from yeast culture medium. Their concentrations were determined from the absorbance at 214 nm using BPTI as a standard. The final concentration was determined by titration with trypsin. Porcine trypsin and human recombinant proteins, factor VIIa, activated protein C (ACP), and tPA were obtained from Novo Nordisk A/S (Bagsvaerd, Denmark), so was human thrombin. Bovine chymotrypsin and glandular kallikrein were obtained from Sigma Chemical Co. (St. Louis, Mo., U.S.A.). Truncated human recombinant tissue factor was obtained from Corvas (San Diego, Calif., U.S.A.). Human neutrophil cathepsin G was purified from extracts of PMNs according to the method described by Baugh and Travis (Biochemistry 15 (1976) 836-843). Human plasmin was from Kabi (Stockholm, Sweden), uPA was from Serono (Milan, Italy), human factor Xa was a gift from Dr. W. Kisiel (Albuquerque, N.M., U.S.A.), and human plasma kallikrein was a gift from Dr. I Schousboe (Copenhagen, Denmark).
(§5) Peptidyl nitroanilide substrates, S2251, S2302, S2266, S2586, S2288, S2444, S2366, and S2238 were from Kabi (Stockholm, Sweden). S7388 and M4765 were from Sigma Chemical Co. (St. Louis, Mo., U.S.A.) and FXa-1 was from Nycomed (Oslo, Norway).
(§6) Serine proteinases were incubated with various concentrations of Kunitz Domain variant for 30 min. Substrate (0.6 mM) was then added and residual proteinase activity was measured at 405 nm.
(§7) The four variants were purified from yeast culture medium. Their concentrations were determined from the absorbance at 214 nm using BTPI as a standard. Porcine trypsin was obtained from Novo Nordisk A/S (Bagsvaerd, Denmark, bovine chymotrypsin (TLCK treated) was obtained from Sigma Chemical Co. (St. Louis, Mo., U.S.A.). Truncated human recombinant tissue factor was obtained from Corvas (San Diego, Calif., U.S.A.). Human plasmin was from Kabi (Stockholm, Sweden). Human neutrophil cathepsin G and elastase were purified from extracts of PMNs according to the method described by Baugh and Travis (Biochemistry 15 (1976) 836-843).
(§8) Peptidyl nitroanilide substrates, S2251, S2586 were from Kabi (Stockholm, Sweden). S7388 and M4765 were from Sigma Chemical Co. (St. Louis, Mo., U.S.A.).
(§9) Serine proteinases were incubated with various concentrations of the variants for 30 min. Substrate ([…]) was then added and residual proteinase activity was measured at 405 nm.

human factor Xa = target: T1, human factor Xa (Homo sapiens, UniProt P00742); assay: Inhibition of serine proteinases: Factor Xa; assay type: biochemical; settings: Example 3; 30 min incubation; read-out: Ki, factor X.
T1 construct: human factor Xa was a gift from Dr. W. Kisiel; gift from Dr. W. Kisiel (Albuquerque, N.M., U.S.A.)
T1 sequence (P00742 235-488 limits assumed): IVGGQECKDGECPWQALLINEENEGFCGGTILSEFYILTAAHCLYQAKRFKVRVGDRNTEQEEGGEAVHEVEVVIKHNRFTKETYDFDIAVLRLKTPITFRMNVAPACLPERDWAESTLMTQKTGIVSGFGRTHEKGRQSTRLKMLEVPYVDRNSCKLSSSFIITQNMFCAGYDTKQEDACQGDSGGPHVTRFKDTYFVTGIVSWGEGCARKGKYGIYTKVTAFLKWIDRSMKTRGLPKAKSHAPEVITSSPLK
T1 sequence (P00742 41-179 limits assumed): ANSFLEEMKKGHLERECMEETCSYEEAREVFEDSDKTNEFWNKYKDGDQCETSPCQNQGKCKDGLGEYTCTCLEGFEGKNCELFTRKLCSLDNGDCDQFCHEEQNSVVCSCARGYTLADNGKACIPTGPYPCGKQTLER
Protocol: as §1, §2, §3
The three TFPI (domain II) variants were purified from yeast culture medium. Their concentrations were determined from the absorbance at 214 nm using BPTI as a standard. The final concentration was determined by titration with trypsin. […]
as §6

[1] = target: T2, Human neutrophil elastase (Homo sapiens, UniProt P08246); assay: Inhibition of serine proteinases: neutrophil elastase; assay type: biochemical; settings: Example 3; 30 min incubation, FIG. 3
T2 construct: Human neutrophil elastase and cathepsin G was purified from extracts of PMNs; from tissue; host or cells: extracts of human polymorphonuclear leukocytes (PMNs), method of Baugh and Travis
T2 sequence (P08246 30-267): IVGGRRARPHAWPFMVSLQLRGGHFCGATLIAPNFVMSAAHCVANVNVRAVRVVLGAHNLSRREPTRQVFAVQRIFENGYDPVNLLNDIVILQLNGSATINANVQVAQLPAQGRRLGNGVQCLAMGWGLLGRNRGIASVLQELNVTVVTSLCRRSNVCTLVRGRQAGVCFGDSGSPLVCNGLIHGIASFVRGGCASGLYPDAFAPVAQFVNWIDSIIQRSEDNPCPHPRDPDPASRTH
Protocol: as §1, §2
Serine proteinases were incubated with various concentrations of KFN 1593 for 30 min. Substrate was then added and residual proteinase activity was measured at 405 nm. […]
as §7, §8, §9

[2] = target: T3, glandular kallikrein (porcine pancreatic kallikrein) (Sus scrofa, UniProt P00752); assay: Inhibition of serine proteinases: glandular kallikrein; assay type: biochemical; settings: Example 3; 30 min incubation, FIG. 3
T3 construct: purchased Sigma Chemical Co (St. Louis, Mo., U.S.A.)
T3 sequence (P00752 8-246): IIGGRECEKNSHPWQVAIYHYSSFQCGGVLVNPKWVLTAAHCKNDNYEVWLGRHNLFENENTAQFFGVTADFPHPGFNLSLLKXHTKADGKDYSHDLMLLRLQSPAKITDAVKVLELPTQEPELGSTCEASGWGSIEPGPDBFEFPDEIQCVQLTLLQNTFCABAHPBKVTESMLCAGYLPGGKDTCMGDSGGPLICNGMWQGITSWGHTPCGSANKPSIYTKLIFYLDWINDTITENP
Protocol: as §1, §2, §3, §4, §5, §6

[3] = target: T4, Human neutrophil cathepsin G (Homo sapiens, UniProt P08311); assay: Inhibition of serine proteinases: neutrophil cathepsin G; assay type: biochemical; settings: Example 3; 30 min incubation, FIG. 3
T4 construct: Human neutrophil cathepsin G was purified from extracts of PMNs; from tissue; host or cells: extracts of human polymorphonuclear leukocytes (PMNs), method of Baugh and Travis
T4 sequence (P08311 21-255): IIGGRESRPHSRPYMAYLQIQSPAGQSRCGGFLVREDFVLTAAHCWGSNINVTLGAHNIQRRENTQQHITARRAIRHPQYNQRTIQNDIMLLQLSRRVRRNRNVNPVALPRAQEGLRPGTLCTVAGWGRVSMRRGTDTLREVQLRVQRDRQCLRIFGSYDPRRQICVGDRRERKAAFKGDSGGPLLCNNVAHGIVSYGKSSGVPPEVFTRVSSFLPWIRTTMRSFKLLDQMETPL
Protocol: as §1, §2, §3, §4, §5, §6, §7, §8, §9

plasma kallikrein [4] = target: T5, plasma kallikrein (Homo sapiens, UniProt P03952); assay: Inhibition of serine proteinases: plasma kallikrein; assay type: biochemical; settings: Example 3; 30 min incubation, FIG. 3
Protocol: as §1, §2, §3, §4, §5, §6
Target sequence in this assay (P03952 391-638 limits assumed): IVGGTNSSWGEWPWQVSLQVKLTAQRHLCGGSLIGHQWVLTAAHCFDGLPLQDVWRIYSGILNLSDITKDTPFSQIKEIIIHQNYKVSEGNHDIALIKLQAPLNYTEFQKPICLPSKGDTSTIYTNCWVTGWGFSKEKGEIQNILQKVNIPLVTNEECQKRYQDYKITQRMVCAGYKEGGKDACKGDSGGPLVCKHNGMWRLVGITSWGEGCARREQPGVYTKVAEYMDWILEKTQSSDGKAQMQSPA
Target sequence in this assay (P03952 20-390 limits assumed): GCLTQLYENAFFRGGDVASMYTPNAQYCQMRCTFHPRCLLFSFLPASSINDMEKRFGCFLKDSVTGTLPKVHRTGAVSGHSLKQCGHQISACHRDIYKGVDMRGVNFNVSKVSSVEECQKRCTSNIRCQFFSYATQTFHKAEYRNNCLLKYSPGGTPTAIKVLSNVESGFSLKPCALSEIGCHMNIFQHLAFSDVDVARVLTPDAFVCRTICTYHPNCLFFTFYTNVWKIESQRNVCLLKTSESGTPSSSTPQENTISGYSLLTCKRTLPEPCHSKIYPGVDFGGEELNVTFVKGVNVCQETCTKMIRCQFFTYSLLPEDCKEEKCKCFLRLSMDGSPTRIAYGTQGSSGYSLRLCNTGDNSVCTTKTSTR

[5] = high doses; cardiac surgery including cardiopulmonary bypass operations; cited from earlier work
plasma kallikrein [6] = target: T5, plasma kallikrein; settings: cf. WO 89/10374; cited from earlier work
Target sequence in this assay (P03952 20-638, species assumed): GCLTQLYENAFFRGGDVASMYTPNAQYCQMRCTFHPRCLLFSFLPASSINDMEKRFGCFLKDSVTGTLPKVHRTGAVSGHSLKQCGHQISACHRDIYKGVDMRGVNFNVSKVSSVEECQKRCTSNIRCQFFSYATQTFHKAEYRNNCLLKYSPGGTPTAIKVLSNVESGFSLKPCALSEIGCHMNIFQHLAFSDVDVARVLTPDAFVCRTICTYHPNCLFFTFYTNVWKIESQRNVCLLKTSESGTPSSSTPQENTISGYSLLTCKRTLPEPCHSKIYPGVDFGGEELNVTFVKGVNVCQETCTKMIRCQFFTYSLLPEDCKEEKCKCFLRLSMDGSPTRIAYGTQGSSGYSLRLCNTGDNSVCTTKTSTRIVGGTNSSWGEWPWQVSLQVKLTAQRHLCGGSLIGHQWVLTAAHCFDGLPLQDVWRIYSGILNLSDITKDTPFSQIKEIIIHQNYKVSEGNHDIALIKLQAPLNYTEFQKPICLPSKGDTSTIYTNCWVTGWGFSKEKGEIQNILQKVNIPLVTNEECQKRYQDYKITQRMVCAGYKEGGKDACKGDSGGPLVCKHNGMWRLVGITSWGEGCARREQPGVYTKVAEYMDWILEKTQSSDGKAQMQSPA

collagenase = settings: Wenzel and Tschesche 1981; cited from earlier work
granulocyte elastase = target: T6, granulocyte elastase (Homo sapiens, UniProt P08246); settings: Wenzel and Tschesche 1981; cited from earlier work
T6 sequence (P08246 30-267): T2 sequence (P08246 30-267)

inhibition of plasmin (in words) (Human plasmin): moderate inhibition | pKi (human factor Xa): 6.82 | inhibition of neutrophil elastase (in words) [1]: moderate inhibition | inhibition of kallikreins (in words): glandular kallikrein [2]: essentially absent | inhibition of Cathepsin G (in words) [3]: essentially absent | inhibition of kallikreins (in words): plasma kallikrein (plasma kallikrein [4]): essentially absent
Substance: KFN 1593: Unmodified TFPI Kunitz domain II (second Kunitz domain of tissue factor pathway inhibitor), produced from yeast strain KFN-1593 (RFESLEECKKMCTRDNANRIIKTTLQQEKPDFCFLEEDPGICRGYITRYFYNNQTKQC)

Substance: aprotinin
blood loss in connection with cardiac surgery [5]: significantly reduces blood loss

Substance: aprotinin (3-58, Arg15, Ala17, Ser42)
plasma kallikrein inhibitory effect (in words) (plasma kallikrein [6]): excellent plasma kallikrein inhibitory effect

Substance: aprotinin(1-58, Val15)
effect on collagenase (in words) (collagenase): inhibitory effect | effect on granulocyte elastase (in words) (granulocyte elastase): relatively high selectivity
